Experiment: yeast display, Sf9 membrane polyspecificity reagent, FACS + sequencing; frameworks hold sequencing errors
Outline: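 Galactose induction of a Saccharomyces cerevisiae BJ5465 synthetic nanobody display library ran 36–48 hours. The cells were then stained for 1 hour at 4 °C with 10% biotinylated, detergent-solubilized Sf9 membrane reagent, pulled down on streptavidin microbeads and FACS-sorted into low and high (top ~1%) gates on expression and reagent-binding fluorescence. Labels for polyreactivity follow the gate of origin.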

Row | Sequence | polyreactivity (PSR sort gate)
1 | QVQLVESGGGLVQAGGSLRLSCAASGSILGYYAMGWYRQAPGKERELVAAISSGGSTNYADSVKGRFTISRDNAKNTVYLQMNSLKPEDTAVYYCAADRTYHGGFDYWGQGTQVTVSS | low polyreactivity
2 | QVQLVESGGGLFQAGGSLRLSCAATGRTFDPYAMGWYRQAPGKERELVAVISISDGSTYYADSVKGRFTISRDNAKNTVYLQMHSLKPEDTAVYYCAAYVFYDYWTLEYWGQGTQVTVSS | high polyreactivity
3 | QVQLVESGGGLVQAGGSLRLSCAASGFTFYTNTMGWYRQAPGKERELVAVISRTGGSTYYADSVKGRFTISRDNANNTVYLQMKSLKPEDTAVYYCAKRGQWPYDYFIGNYWGQGSQVTVSS | high polyreactivity
4 | QVQLVESGGRLVQAGGSLRLSCAASGRIFDGNAMGWYRQAPGKERELVAAISWTGGSTYYADSVKGRFTISRDNAKNTVYLQMNSLKPEDTAVYYCAADSGWWLDQWSWYDYWGQGTQVTVSS | low polyreactivity
5 | QVQLVESGGGLVKAGGSLRLSCAASGYTYPLYAMGWYRQAPGKEMELVADINIGGASTYYADSVKGRFTISRDNAKNTVYLQMNSLKPEDTAVYDCAKEYYDGYFPTFDYDYWGQGTQVTVSS | low polyreactivity
6 | QVQLVESGGGLVQAGGSLRLSCAASGTIFLYYAMGWYRQAPGKERELVAGINRVGSTNYADSVKGRFTISRDNAKNTVYLQMNSLKPEDTAVFYCNKAATRSRSRGYWGQGTQVNVSS | low polyreactivity
7 | QVQLVESGGGLVEAGGSLRLSCAASGFIFGGYDMGWYRPAPGKQRELVAAITRSGGSTYYADSVKGRFTISRDNAKNTVYLEMNSLKPEDTAVYYCAAERQPYRTSSYNYWGQGTQVTVSS | high polyreactivity
8 | QFQLVESGGGLVQAGGSLRLSCAASGSTFPRYAMGWYRPAPGKERELVAAISRSGTSTYYADSVKGRFTISRDNAKNTVYLQMNSLKPEDTAVYYCAAEYHPRVLYPNWYDYWGQGTQVTVSS | low polyreactivity
9 | QVQLVESGGGLVQAGGSLRLSCAASGRIFTPYAMGWYRQAPGKERELVAVIRDGSTYYADSVKGRFTISRDNAKNTVYLQMNSLKPEDPAVSYCSYDIWVWWSGAYDYWGQGNQVTVSS | low polyreactivity
10 | QVQLGESGGGLLQAGGSLRLSCAASGFTFYGYAMGWYRQAPGKERELVAAISRRGGSTYYADSVKGRFTISRDNAKYTVYVQMNSLKPEDTAVYYCITLFSHLRDRYDYWGQGTEVTVSS | high polyreactivity
11 | QVQLVESGGGLVHAGGFLRLSCAASGRIFRWNAMGWYRQAPGKERELVAAISWNGGRTYYADSVKGRFTISRDNAKNRVYFQMNSLKPEDTAVYYCAAPHSVPDLHSGDYWGQGTQVTVSS | low polyreactivity
12 | QVQLVESGGGLVQAGGSLRLSCAASGLTFKSYAMGWYRQAPGKERELVAAISWRGGRTYYADSVKGRFTISRDNAKNTVYLQMNSLKPEDTAVYYCNARSQQWWLSRYNYWGQGSQVTVSS | high polyreactivity
13 | QVQLVESGGGLVQAGGSLRLSCAASGSIFYVYAMGWYRQAPGKERELVAAISRRGARTYYADSVKGRFTISRDTAKYPVYLQMNSLQPEDTAVYYCNADQYSTVGYSAEYEYWGHGTQVTVSS | low polyreactivity
14 | QVQLVESGGGLVQAGGSLRLSCAASGRIFYPNDLGWYRQAPGKERELVAAITRDGSTNYADSVKGRFTISRDNAKNTVYLQMNSLKPEDTAVYYCAADISDWYIIRRMNYWGQGTQVTVSS | low polyreactivity
15 | QVQLVESGGGLVQAGGSLRLSCAASGFIFYYNDMGWYRQAPGKERELVAAISGGVGSTYYADSVKGRFTISRDNAKNTVYLQMNSLKPEDSAVYYCATRRYSLTYGLGYDYWGQGTQVTVSS | low polyreactivity
16 | QVQLVESGGGLVQAGGSLRLSCADSGNILGYNAMGSYRQAPGKATELVAAISDNADSTYYADSVKGRFTISRDNAKNTVYLQMKSLKPEDTAVYYGAADWVHRTWLFWYTKYDYWGQGTQVTVSS | low polyreactivity
17 | QVQLVESGGGLVQAGGSLRLSCAASGSIFVRNAMGWYRQAPGKERELVAAITYRGGSTYYADSVKGRFTISRDNAKNTVYFQMNSLKPEDTAVYYCFDVNTDVLSRVYRGWGYYYWGQGTQVTVSS | low polyreactivity
18 | QVQLVESGGGLVQAGGSLRLSCAASGRNFRYYAMGWYRQAPGKERELVAAITTGSSTYYADSVKGRFTISRDNAKNTVYLQMNSLKPEDTAVYYCNVFQGTRYGYWGQGTQVTVSS | low polyreactivity
19 | QVQLVESGGGLVQAGGSLRLSCAASGRTFYSYAMGWYRQAPGKERELVAAISGRGGRTYYADSVKGRFTISRDNAKNTVYLQMNSLKPEDTAVYYCAKGGYAIRYYGFDYWGQGTQVTVSS | high polyreactivity
20 | QVQLVESGGGLVQAGGSLPLSCASSGSTFSTYAMGWYRQAPGKERELVAAIRWSGGSTYYADSVKGRFTLSRDNAKNTVYLLMTSLKPEDTAVYYCAKGIRRWYGGSDYWGQGTQVTVSS | low polyreactivity
21 | QVQLVESVGGLVQAGGSLSLSCAASGSTLSDNAMGWYRQAPGKERELVAAIRRVGSTNYADSVKGRFTISRDNAKNTVYLQMNSLKPEDTAVYYCAVRHVWPWQGYDYWGQGTQVTVSS | low polyreactivity
22 | QVQLVESGGGLVQAGGSLRLSCAASGRIVNYYAMGWYRQAPGKERELVAAINSGGSTDYADSVKGRFTISRDNAKNTVYLQMNSLKPEDTAVYYCNAEKTYLYTDIPGYARFGYWGQGTQVTVSS | high polyreactivity

Row | Sequence | polyreactivity (PSR sort gate)
23 | QVQLQESGGGLVQAGGSLRLSCAASGNIFSAGGMGWYRQAPVNERELVAGIGTGTSTNYADSVKGRFTISRDNAKNTVYLQMNSLKPEDTAVYYCAAAYYSGLSHWYWGQGTQVTVSS | low polyreactivity
24 | QVQLVESGGGLVQAGGSLRLSCAASGSTFGLYAMGRYRQAPGKERELVAAIRYSDGSTYYADSVKGRFTISRDNAKNTVYLQMNSLKPEDTAVYYCAAEIGTYFHVPTEYDYWGQGTQVTVSS | low polyreactivity
25 | QVQLVESGGGLVQAGGSLRLSCAASGSIFSVYVMGWYRQAPGKERELVAAISWSDSDTYYADSVKGRFTISRDNAKNTVYLQMNSLKPEDTAVYYCAAETFDYADYIANGSGEYDYWGQGTQGTVSS | high polyreactivity
26 | QVQLVESGGGLVQAGGSLRLSCAASGSIFGYYTMGWYRQAPGKERELVAAITSGGSTHYADSVKGRFTISRDNAKKTGYLQMNSLKPEDTAVYYCAKVSYYPWRYDYWGQGTQVTVSS | low polyreactivity
27 | QVQLVESGGGLVKAGGSLRISCAASGSIFTPYTMGWYRQAPGKERELVAAISSGDSTYYADSVKGRFTISRDNAKKTVYLQMNSLKPEDTAVYYCAADYRYDYDYWGQGTQVTVSS | low polyreactivity
28 | QVQLVESGGGLVQAGGSLRLSCAASGIIFRPYTMGWYRQAPGKERELVAAISQSGGRTYYADSVKGRFTISRDNAKNTVYLQMNSLKPEDTAVYYCNVLGSYSYYPWPIPGYDYWGQGTQVTVSS | high polyreactivity
29 | QVQLVESGGGLVQAGGSLRLSCAASGSIFDWYVMGWYRQAPGKERELVAAITSGGSTNYADSVKGRFTISRDNAKNTVYLQMNSLKPEDTAVYFCAADTVSFSILYDYWGQGTQVTVSS | low polyreactivity
30 | QVQLVESGGGLVQAGGSLRLSSAASGSIFYVYAMGWYRQAPGKERELVAAISGGGGSTYYADSVKGRFTISRDNAKNTVYLQMNSLKPEDTAVYYCAADLSGGPYLGGYDYWGQGTQVTVSS | high polyreactivity
31 | QVQLVESGGGLVQAGGSLRLSCAASGSTFRYYAMGWYRQAPGKERELVAANTYRATSTYYADSVKGRFTISRDNAKNTVYLQMNSLKPEDTAVYYCAAYSTYSRYDYWGQGTQVTVSS | high polyreactivity
32 | QVQLVESGGGLVQAGGSLRLSCAASGFTFRDYVMGWYTQAPGKERELVAAISRSGASTYYADSVKGRFTISRDNAKNTVYLQMNSLKPEDTAVYYCAKTQAGYSPGTYDYWGQGTQVTVSS | high polyreactivity
33 | QVQLVESGGGLVQAGGRLRLSCAASGSISVTKAMGWYRQAPGTERELVAAISGSGGSTYADSVKGRFTISRDNAKNTVYLQMNSLKPVDTAVYYCDRDRYYTREWYWYRHDHWGQGTQVTVSS | low polyreactivity
34 | QVQLLETGGGLVQAGGSLRLSCAASGITFKYYSMGWYRQAPGKERELFATITKRGGSTYYADSVKGRFTISRDNAKNTVYLQMNSLKPVDTAVYYCAAEILIRFWGVQWGGEYWGQGTQVTVSS | high polyreactivity
35 | QVQLVESGGGLVQAGGSLRLSCADSGFILWYNAMGWYRQAPGKERELVARIDVRGGSTYYADSVKGRFTISRDNAKNTVYLQMNSLKPEDTAVYYCARKRQGPASRARYDYWGQGTQVTVSS | low polyreactivity
36 | QVQLVESGGGLVQAGGSLRLSCAASGSTFVENAMGWYRQAPGKQRELVAAISSSGDSTFYADSEKGRFTISRDNAKNTVYLQMNSLIPEDTAVYYCAADRRINYDGLDMDYWGQGTQVTVSS | low polyreactivity
37 | QVQLQESGGGLVLAGGSLRLSCSASGNISFYGSMGWYRQAPGKESEFVATIDPGTNTNYADSVKDRFTISRDNAKNTVYLQMNSLKPEDTAVYYCAVEAGSDWPYRYWGQGTQVTVSS | low polyreactivity
38 | QVLLVESGGGLVQAGGTLRLSCADSGFTFVTYGMGWYRQEPGKERELVARISSSSTNYADSVKGRFTISRDNAKNTVYLQMKSLKPEDTEVYYCAAVHYRWWYRSAYDFWGQGTQVTVSS | low polyreactivity
39 | QVQLVESGGGLVQAGGSLRLSCAASGFIFDYNAMGWYRQAPGKERELVAAISISGGGTYYADSVKGRFTISRDNAKNTVYLQMNSLKPEDTAVYYCATAGRYDAYDYWGQGTQVTVSS | low polyreactivity
40 | QVQLVESGGGLVQAGGILSLSCAASGSTLNSYAMGWNRPAPGKERELVAAIRWSGSSTYYADSVKGRFTISRDNAKNSVFLQMNSLKPQDTAVYYCAKGYSYGRPWDIYYYCGQGTQVTVSS | low polyreactivity
41 | QVQLVESWGGLVQAGGSLRLSCAASGSIFSVYAMGWYRQAPGKERELVAAITSGGGTKYADSLKGRFTISRDNAKNTVYLQMNSLKPEDTAVYYCAAESFSDGSPYNYWGQGTQVTVSS | low polyreactivity
42 | QVQLVESGGGLVQAGGSLRLSCAASGRTFGTNAMGWYRQAPGKERELVASIDLSADSTYYADSVKGRFTISRDNAKNTVYLQMNSLKPEDTAVYYCNKDGYPWPPNLDYWGQGTQVTVSS | low polyreactivity
43 | QVQLVESGGGLVQAGGSLRLSCAASGFTFPFNAMGWYRQAPGKERELVAAISQRTGRTYYADSVKGRFTISRDNAKNTVYLQMNSLKPEDTAVYYCNARTGTTGYGRYDYWGQGTQVTVSS | high polyreactivity
